Source: patent US20250320480A1, “Immunoglobulin Cleaving Enzyme” (priority 2021, published 2025)

Columns and labels:
human IgG = assay: Immunoglobulin specificity on SDS-PAGE: human IgG and IgG Fc fusion proteins; type: biochemical; settings: for Hydrolysis of human IgG and IgG Fc fusion proteins: incubated with different antibodies at 37° C., SDS-PAGE
Method: (§1) FIG. 3. Specificity of IdeSork2.0. IdeSork2.0 was mixed with different antibodies and incubated o/n at 37° C. before analysis on SDS-PAGE. The enzyme itself is noted with an arrow. […] Mouse IgG1, mouse IgG2b and human IgA were not affected by IdeSork2.0.
(§2) Various antibodies and antibody based therapeutics were incubated with Xork, IdeS, or IdeZ (1:40 ratio) for 1 hour at 37° C. in PBS, with substrate concentrations ranging between 2-5 mg/mL, before being analyzed on SDS-PAGE. For kinetic studies, a substrate level of 2-200 μM IVIG was used during 10 min at 37° C. before being analyzed on a UHPLC system.

human IgA = assay: Immunoglobulin specificity on SDS-PAGE: human IgA; type: biochemical; settings: 37° C.
Method: as §1, §2

mouse IgG2a = mouse IgG2a (Mus musculus, UniProt P01863); assay: Immunoglobulin specificity on SDS-PAGE: mouse IgG2a; type: biochemical; settings: 37° C.
Chain of mouse IgG2a (P01863 whole entry): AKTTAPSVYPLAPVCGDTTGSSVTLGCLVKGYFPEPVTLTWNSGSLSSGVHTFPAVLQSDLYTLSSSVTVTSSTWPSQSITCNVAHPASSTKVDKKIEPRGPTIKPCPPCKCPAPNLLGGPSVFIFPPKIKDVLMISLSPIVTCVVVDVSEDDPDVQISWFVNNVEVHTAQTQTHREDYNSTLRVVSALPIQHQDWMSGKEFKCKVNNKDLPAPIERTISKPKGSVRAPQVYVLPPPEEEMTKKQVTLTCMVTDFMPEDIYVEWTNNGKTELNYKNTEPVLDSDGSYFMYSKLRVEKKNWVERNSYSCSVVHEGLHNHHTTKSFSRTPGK
Method: as §1, §2

mouse IgG2b = mouse IgG2b (Mus musculus, UniProt P01867); assay: Immunoglobulin specificity on SDS-PAGE: mouse IgG2b; type: biochemical; settings: 37° C., listed as IdeSork2.0
Chain of mouse IgG2b (P01867 1-335 isoform P01867-2): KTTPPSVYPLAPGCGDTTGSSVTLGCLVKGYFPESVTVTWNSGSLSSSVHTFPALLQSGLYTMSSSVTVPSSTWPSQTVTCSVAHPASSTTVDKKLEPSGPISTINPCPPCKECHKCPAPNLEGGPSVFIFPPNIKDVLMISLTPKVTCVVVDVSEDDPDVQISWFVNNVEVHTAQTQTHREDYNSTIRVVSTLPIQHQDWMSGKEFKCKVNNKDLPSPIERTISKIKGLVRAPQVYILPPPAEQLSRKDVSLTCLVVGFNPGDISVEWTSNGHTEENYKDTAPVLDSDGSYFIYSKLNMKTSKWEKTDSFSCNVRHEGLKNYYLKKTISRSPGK
Method: as §1, §2

horse IgG = assay: Immunoglobulin specificity on SDS-PAGE: horse IgG; type: biochemical; settings: o/n at 37° C.
Method: FIG. 11. Specificity of IdeSork2.0. IdeSork2.0 was mixed with different antibodies and incubated o/n at 37° C. before analysis on SDS-PAGE.
as §2

cow IgG = assay: Immunoglobulin specificity on SDS-PAGE: cow IgG; type: biochemical
Method: as §2

Trastuzumab = assay: Mechanism of action: time course on Trastuzumab, non-reduced SDS-PAGE; type: biochemical, human; settings: 1:20, 0-60 minutes
Method: FIG. 6. IdeSork2.0 is acting upon IgG in a two-step mechanism. To investigate if IdeSork2.0 is hydrolyzing both heavy chains of IgG simultaneously, or acting on them individually, we incubated Trastuzumab with IdeSork2.0 (1:20) and incubated for 0-60 minutes before analyzing on a non-reduced SDS-PAGE.
IdeS is known to first hydrolyze one chain of the antibody, and upon hydrolysis thereof, have lower affinity to the second chain. As such many antibodies may be only partly hydrolyzed at the start of the reaction. IdeSORK2.0 also generates fragments with single chain cleavage, however a large proportion of these are quickly processed to full cleavage (FIG. 6).

IgG = assay: Time-dose assays (enzyme:substrate ratio, time); type: biochemical
Method: FIG. 8. IdeSork2.0 enzyme: substrate ratio. The impact of enzyme and substrate concentration for the reaction speed was investigated using a Box-Behnken experimental setting, also analyzing the impact of time for the reaction speed. Output was measured as percentage hydrolysis of IgG (top left figure), as well as quantity hydrolyzed IgG per unit enzyme (all other figures).
FIG. 9. IdeSork2.0 enzyme: substrate activity over time. To verify the impact of modifying the enzyme: substrate ratio, an experiment with varying amounts of substrate (5-40 μg) to a set amount of enzyme (1 μg) was conducted over time (30, 60, and 120 min).
To investigate the impact of substrate and enzyme concentration, as well as time needed to complete (>95% hydrolysis) a reaction, a new Box-Behnken assay was designed (FIG. 8). The data was supported by traditional assays, with similar results (FIG. 9). IdeSORK2.0 quite rapidly hydrolyzes the vast majority of the material, but needs a longer time to finish hydrolysis of the last percentages of intact IgG, similar to other immunoglobulin proteases. A ratio of 1:40 hydrolyzes >95% of IgG in 30-60 minutes.
To better understand the optimal conditions needed for the enzyme to exert its activity, a Box-Behnken design was employed for the experiment. Addition of NaCl (0-400 mM), pH (5.5-8.5), [enzyme], [substrate], time, and temperature were parameters investigated. […]

IgG1 = assay: Comparison to other IgG proteases: IgG1; type: biochemical; settings: SDS-PAGE
Method: FIG. 10. IdeSork2.0 is having a similar activity compared to IdeS and IdeZ. To investigate if IdeSork2.0 is hydrolyzing IgG in a similar way as IdeS and IdeZ they were all incubated against IgG1 and IgG2 and analyzed on SDS-PAGE. The cleavage patterns look identical, with both IdeSork2.0 and IdeS having less activity towards IgG2.
To further look into the activity of IdeSORK2.0, its activity was compared with IdeS and IdeZ against both IgG1 and IgG2.

B1: IdeSORK2.0: SEQ ID NO: 2 (N terminal 312 amino acids of IdeSORK) with added N terminal methionine and C-terminal His6; 319 amino acids (protein)
chain: MSKRKLLKKIEKKDTSSVLTQKKQTKTLWADGVQVDDKDFKPSTENFGTNYLAAEYGIGKGYYDINKKFDGTDDDLCSGVVAANQLHWWLDRNKDYIEKYRQQSKDNGVTIGNTDIFELNKLHDEDQSNFFDFIKKSFGNKFLQPERLLNMYINGYGYLTSQDKAKTSQPSPSKLNFFQKVFKNNLLTDKTPINDIDEFSSQTKNALQNHKVLAVSFASIKNRGLGHVVTVWGADFDENGKVVALYVTDSDDRSKNIGNAKLGMKKLRIEVSAQDSSTIKLTGFEDKNSGGSLRHLYSLSTGEQIWKKYFEETHHHHHH
modifications: (IdeSORK2.0) Protein of SEQ ID NO 2 engineered to include an additional N terminal methionine and a C-terminal protein purification tag - His6
Human IgG
  Hydrolysis of monoclonal IgG4: can also hydrolyze
  Hydrolysis of polyclonal IgG (e.g. IVIG): near complete hydrolysis
  Hydrolysis of human IgG and IgG Fc fusion proteins: hydrolyzing all tested human IgGs and IgG Fc fusion proteins
Human IgG; IgG1 versus IgG2
  Preference between human IgG subclasses: slight preference for IgG1 over IgG2
Human IgG; human antibodies with altered hinge
  Effect of alterations of the hinge region (e.g. LALA-sequence) on activity: did not affect the activity
Human IgG; listed as IdeSork2.0
  Hydrolysis of human IgG and IgG Fc fusion proteins: hydrolyzed
Human IgA
  Activity towards human IgA: not active
Human IgA; listed as IdeSork2.0
  Activity towards human IgA: not affected
Mouse IgG2a
  Activity towards mouse IgG2a: active
Mouse IgG2a; listed as IdeSork2.0
  Activity towards mouse IgG2a: could be hydrolyzed
Mouse IgG2b
  Activity towards mouse IgG2b: not affected
Horse IgG
  Activity on horse IgG: showed activity
Cow IgG
  Activity on cow IgG: only showed activity against horse and guinea pig IgG
Trastuzumab
  Mechanism of IgG heavy chain hydrolysis: activity is mediated one chain at a time
  Time course of IgG hydrolysis: Most IgG is hydrolyzed within the first few minutes
Trastuzumab; listed as IdeSork2.0
  Mechanism of IgG heavy chain hydrolysis: two-step reaction
IgG; 5-40 μg substrate to 1 μg enzyme, 30, 60 and 120 min
  Hydrolysis of IgG over time at varying substrate amounts: Almost all IgG is hydrolyzed within 30 minutes
IgG; ratio 1:40, 30-60 minutes
  Hydrolysis of IgG: > 95%
IgG1
  Hydrolysis of IgG1: able to hydrolyze
